Changes are numbered by the printed parent chain. Values joined by “and” are separate entries in the source; they are usually repeats but may differ in a detail not shown here. Equal entries are not always repeated. Values belong to the binder of their own block, whether it stands above or below them.
Experiments:
human CD33 [1] = target: T1, human CD33 (human, UniProt P20138 18-364); test: cell-based or functional assay
human CD3 [2] = target: T2, human CD3 (human, UniProt P07766 23-207; P09693 23-182; P04234 22-171; P20963 22-164); test: cell-based or functional assay
human CD33 [3] = target: T1, human CD33; test: cell-based or functional assay; remark: listed apart in the source
human CD33 [4] = target: T1, human CD33; test: cell-based or functional assay; remark: listed apart in the source
human CD33 [5] = target: T1, human CD33; test: cell-based or functional assay; remark: listed apart in the source
human CD3 [6] = target: T2, human CD3; test: flow cytometry titration on human CD3+ T cells/Jurkat, anti-His detection
Procedure: Cells were incubated with 100 μL of serial dilutions of CD33/CD3 2×2 T-cell engagers. After washing three times with FACS buffer the cells were incubated with 0.1 mL of […] mouse monoclonal anti-His antibody in the same buffer for 45 min on ice. After a second washing cycle, the cells were incubated with 0.1 mL of […] FITC-conjugated goat anti-mouse IgG antibodies under the same conditions as before. As a control, cells were incubated with the anti-His IgG followed by the FITC-conjugated goat anti-mouse IgG antibodies without anti-CD33 2×2 T-cell engagers. […] The fluorescence of 1×10⁴ living cells was measured using a Beckman-Coulter FC500 MPL flow cytometer using the MXP software (Beckman-Coulter, Krefeld, Germany) or a Millipore Guava EasyCyte flow cytometer using the Incyte software (Merck Millipore, Schwalbach, Germany). Mean fluorescence intensities of the cell samples were calculated using CXP software (Beckman-Coulter, Krefeld, Germany) or Incyte software (Merck Millipore, Schwalbach, Germany). After subtracting the fluorescence intensity values of the cells stained with the secondary and tertiary reagents alone the values were used for calculation of the KD values with the equation for one-site binding (hyperbola) of the GraphPad Prism (version 6.00 for Windows, GraphPad Software, La Jolla Calif. USA). […]

T2 sequence (P07766 23-207, chain 1 of 4): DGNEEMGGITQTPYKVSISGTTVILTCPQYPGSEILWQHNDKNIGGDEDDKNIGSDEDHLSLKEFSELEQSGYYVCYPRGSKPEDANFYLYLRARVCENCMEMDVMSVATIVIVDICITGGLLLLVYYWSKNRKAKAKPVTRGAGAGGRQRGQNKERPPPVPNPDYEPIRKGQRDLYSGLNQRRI
T2 sequence (P09693 23-182, chain 2 of 4): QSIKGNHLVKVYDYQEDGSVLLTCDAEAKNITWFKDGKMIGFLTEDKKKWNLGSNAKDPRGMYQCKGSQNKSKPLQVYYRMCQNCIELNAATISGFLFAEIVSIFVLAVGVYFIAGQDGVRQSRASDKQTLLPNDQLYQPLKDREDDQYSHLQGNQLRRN
T2 sequence (P04234 22-171, chain 3 of 4): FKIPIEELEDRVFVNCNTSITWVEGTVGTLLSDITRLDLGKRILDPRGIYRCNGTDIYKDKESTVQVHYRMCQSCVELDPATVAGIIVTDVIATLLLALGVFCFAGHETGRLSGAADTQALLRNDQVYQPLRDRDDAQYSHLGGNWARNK
T2 sequence (P20963 22-164, chain 4 of 4): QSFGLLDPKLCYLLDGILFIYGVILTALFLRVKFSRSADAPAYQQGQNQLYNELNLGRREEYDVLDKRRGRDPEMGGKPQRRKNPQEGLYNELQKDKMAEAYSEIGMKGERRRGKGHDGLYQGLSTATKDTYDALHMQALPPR
T1 sequence (P20138 18-364): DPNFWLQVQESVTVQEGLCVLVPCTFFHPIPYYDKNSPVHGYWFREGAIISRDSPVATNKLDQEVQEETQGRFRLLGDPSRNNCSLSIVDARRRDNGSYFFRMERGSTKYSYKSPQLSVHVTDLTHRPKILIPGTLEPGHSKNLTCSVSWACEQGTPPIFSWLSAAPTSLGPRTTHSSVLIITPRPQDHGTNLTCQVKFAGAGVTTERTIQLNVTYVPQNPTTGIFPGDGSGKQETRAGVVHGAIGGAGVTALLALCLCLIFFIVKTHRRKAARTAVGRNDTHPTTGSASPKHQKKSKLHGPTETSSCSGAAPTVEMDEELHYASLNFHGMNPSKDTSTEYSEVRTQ

CD25 Induction EC50 (PBMC, 24 h) (human CD3 [2]): 6 pM | CD69 Induction EC50 (PBMC, 24 h) (human CD3 [2]): 3 pM | IC50 lysis of KG-1 cells with human T cells, E:T 5:1, 24 h (human CD33 [3]): ~0.01 pM
B1: CD33/CD3 2×2 T-cell engager 12 (bispecific antibody)
chain: DIQMTQSPSSLSASVGDRVTITCRSSTGAVTTSNYANWVQQKPGKAPKALIGGTNKRAPGVPSRFSGSLIGDKATLTISSLQPEDFATYYCALWYSNLWVFGQGTKVEIKGGSGGSQVQLVQSGAEVKKPGASVKVSCKASGYTFTSYDINWVRQAPGQGLEWMGWMNPNSGNTGFAQKFQGRVTMTRDTSTSTVYMELSSLRSEDTAVYYCARDRAVTDYYYGMDVWGQGTLVTVSSGGSGQSVLTQPPSASGTPGQRVTISCSGSRSNIGSNTVNWYQQLPGTAPKLLIYGNNQRPSGVPDRFSGSKSGTSASLAISGLQSEDEADYYCATWDDSLIGWVFGGGTKLTVLGGSGGSEVQLVESGGGLVQPGGSLRLSCAASGFTFSTYAMNWVRQAPGKGLEWVGRIRSKYNNYATYYADSVKDRFTISRDDSKNSLYLQMNSLKTEDTAVYYCARHGNFGNSYVSYFAYWGQGTLVTVSSAAAGSHHHHHH
EC50 cytotoxicity on HL-60, E:T 5:1, 20-24 h (human CD33 [1]): 1.3 pM and 137 pg/mL | EC50 cytotoxicity on KG-1, E:T 5:1, 20-24 h (human CD33 [1]): 1.2 pM and 126 pg/mL | EC50 cytotoxicity on U-937, E:T 5:1, 20-24 h (human CD33 [1]): 0.8 pM and 84 pg/mL | EC50 cytotoxicity, mean of HL-60, U-937, KG-1 (human CD33 [1]): 1.1 pM and 116 pg/mL

CD25 Induction EC50 (PBMC, 24 h) (human CD3 [2]): 10 pM | CD69 Induction EC50 (PBMC, 24 h) (human CD3 [2]): 7 pM
B2: CD33/CD3 2×2 T-cell engager 14 (bispecific antibody)
chain: B1 chain with V218N, Y221F, Y222S
EC50 cytotoxicity on HL-60, E:T 5:1, 20-24 h (human CD33 [1]): 1.6 pM and 168 pg/mL | EC50 cytotoxicity on KG-1, E:T 5:1, 20-24 h (human CD33 [1]): 2.6 pM and 273 pg/mL | EC50 cytotoxicity on U-937, E:T 5:1, 20-24 h (human CD33 [1]): 3.6 pM and 378 pg/mL | EC50 cytotoxicity, mean of HL-60, U-937, KG-1 (human CD33 [1]): 2.6 pM and 273 pg/mL | EC50 on HL-60 (cytotoxicity) (human CD33 [4]): 11.6 pM

EC50 calcein-release lysis of HL-60, E:T 25:1, 30 min (human CD33 [5]): 4.8 pM | EC50 calcein-release lysis of HL-60, E:T 25:1, 60 min (human CD33 [5]): 2.5 pM | EC50 calcein-release lysis of HL-60, E:T 25:1, 120 min (human CD33 [5]): 1.6 pM | EC50 calcein-release lysis of HL-60, E:T 25:1, 180 min (human CD33 [5]): 1.6 pM | EC50 calcein-release lysis of HL-60, E:T 25:1, 240 min (human CD33 [5]): 1.5 pM | EC50 calcein-release lysis of HL-60, E:T 25:1, 300 min (human CD33 [5]): 1.6 pM | CD25 Induction EC50 (PBMC, 24 h) (human CD3 [2]): 1 pM | CD69 Induction EC50 (PBMC, 24 h) (human CD3 [2]): 2 pM | IC50 lysis of KG-1 cells (separate experiment) (human CD33 [3]): 5 pM | IC50 lysis of KG-1 cells with human T cells, E:T 5:1, 24 h (human CD33 [3]): ~0.5 pM
B3: CD33/CD3 2×2 T-cell engager 16 (bispecific antibody)
chain: B1 chain with V218N, Y222S, Y223L
EC50 cytotoxicity on HL-60, E:T 5:1, 20-24 h (human CD33 [1]): 1.5 pM and 158 pg/mL | EC50 cytotoxicity on KG-1, E:T 5:1, 20-24 h (human CD33 [1]): 1.8 pM and 189 pg/mL | EC50 cytotoxicity on U-937, E:T 5:1, 20-24 h (human CD33 [1]): 1.9 pM and 200 pg/mL | EC50 cytotoxicity, mean of HL-60, U-937, KG-1 (human CD33 [1]): 1.7 pM and 179 pg/mL

Kd (human CD3 [6]): 11900 pM
B4: CD33/CD3 2×2 T-cell engager 18 (bispecific antibody)
chain: EVQLVESGGGLVQPGGSLRLSCAASGFTFSTYAMNWVRQAPGKGLEWVGRIRSKYNNYATYYADSVKDRFTISRDDSKNSLYLQMNSLKTEDTAVYYCARHGNFGNSYVSYFAYWGQGTLVTVSSGGSGGSQSVLTQPPSVSGAPGQRVTISCTGSSSNIGAGYDVHWYQQLPGTAPKLLIYGNSNRPSGVPDRFSGSKSGTSASLAITGLQAEDEADYYCQSYDSSLSDVVFGGGTKLTVLGGSGQVQLVQSGAEVKKPGESLKISCKGSGYSFTSYWIGWVRQMPGKGLEWMGIIYPGDSDTRYSPSFQGQVTISADKSISTAYLQWSSLKASDTAMYYCARHKRGSDAFDIWGQGTTVTVSSGGSGGSDIQMTQSPSSLSASVGDRVTITCRSSTGAVTTSNYANWVQQKPGKAPKALIGGTNKRAPGVPSRFSGSLIGDKATLTISSLQPEDFATYYCALWYSNLWVFGQGTKVEIKAAAGSHHHHHH
notes: Homodimer; His-tagged form
